The results in this text go back to paper PMC13397619.

B1: NLV2 TCR alpha chain (CDR3α only) (parent)
chain: AGPMKTSYDKVI
partner: MLVPMVATV

The assay covers variants of B1. The assay can be described thus: T-Switch: Jurkat TCRβ−/− cells expressing a CDR3 saturation-mutagenesis library, stained with two peptide-HLA-A*02:01 tetramers (original and novel peptide) plus anti-CD3, FACS-sorted into four gates, gDNA sequenced. Particulars: with HLA-A*02:01 with peptide … (NLV 3-1, the novel peptide), tetramers 1 µg/mL, 30 min on ice, SP, DP and SW gates expanded about 10 days between rounds ('two to three rounds of selection' in the Methods), gate SW: higher = more of the variant in the gate that binds the novel peptide and not the original one = switched binding. Fold enrichment of the CDR3 variant in one FACS gate of a two-tetramer stain, unresolved parent, parent is a CDR3 fragment, scale: fold enrichment, numbering: sequential-on-construct, sequence starts at 1.
[…] (CDR3 as printed); Y8S derived by comparing it with the table's wild-type CDR3 AGPMKTSYDKVI: the enrichment is 0.

With […] (CDR3 as printed); T6Y derived by comparing it with the table's wild-type CDR3 AGPMKTSYDKVI, the enrichment is 0. Turning to […] (CDR3 as printed); V11M derived by comparing it with the table's wild-type CDR3 AGPMKTSYDKVI, the enrichment was determined as 0. As for […] (CDR3 as printed); Y8M derived by comparing it with the table's wild-type CDR3 AGPMKTSYDKVI, the figure is 0; as for […] (CDR3 as printed); S7I derived by comparing it with the table's wild-type CDR3 AGPMKTSYDKVI, 0. As for […] (CDR3 as printed); Y8N derived by comparing it with the table's wild-type CDR3 AGPMKTSYDKVI, the figure is 0; as for […] (CDR3 as printed); Y8G derived by comparing it with the table's wild-type CDR3 AGPMKTSYDKVI, 0. Turning to […] (CDR3 as printed); Y8V derived by comparing it with the table's wild-type CDR3 AGPMKTSYDKVI, the enrichment came to 0. With […] (CDR3 as printed); S7R derived by comparing it with the table's wild-type CDR3 AGPMKTSYDKVI, the enrichment was found to be 0.

Turning to […] (CDR3 as printed); P3M derived by comparing it with the table's wild-type CDR3 AGPMKTSYDKVI, the enrichment was found to be 0. As for […] (CDR3 as printed); V11H derived by comparing it with the table's wild-type CDR3 AGPMKTSYDKVI, the figure is 0. As for […] (CDR3 as printed); Y8Q derived by comparing it with the table's wild-type CDR3 AGPMKTSYDKVI, the figure is 27.8; as for […] (CDR3 as printed); M4V derived by comparing it with the table's wild-type CDR3 AGPMKTSYDKVI, 0; as for […] (CDR3 as printed); Y8I derived by comparing it with the table's wild-type CDR3 AGPMKTSYDKVI, 0.

[…] (CDR3 as printed); V11G derived by comparing it with the table's wild-type CDR3 AGPMKTSYDKVI: the enrichment was determined as 0. Consider […] (CDR3 as printed); P3K derived by comparing it with the table's wild-type CDR3 AGPMKTSYDKVI, for which the enrichment came to 0. As for […] (CDR3 as printed); V11W derived by comparing it with the table's wild-type CDR3 AGPMKTSYDKVI, the figure is 0.

Regarding […] (CDR3 as printed); S7A derived by comparing it with the table's wild-type CDR3 AGPMKTSYDKVI, the enrichment was 0. As for […] (CDR3 as printed); M4H derived by comparing it with the table's wild-type CDR3 AGPMKTSYDKVI, the figure is 0; as for […] (CDR3 as printed); M4R derived by comparing it with the table's wild-type CDR3 AGPMKTSYDKVI, 0. Consider […] (CDR3 as printed); S7M derived by comparing it with the table's wild-type CDR3 AGPMKTSYDKVI, for which the enrichment amounted to 0. As to […] (CDR3 as printed); P3Q derived by comparing it with the table's wild-type CDR3 AGPMKTSYDKVI, the enrichment was 0. As for […] (CDR3 as printed); S7Q derived by comparing it with the table's wild-type CDR3 AGPMKTSYDKVI, the figure is 0; as for […] (CDR3 as printed); T6P derived by comparing it with the table's wild-type CDR3 AGPMKTSYDKVI, 0. As for […] (CDR3 as printed); Y8E derived by comparing it with the table's wild-type CDR3 AGPMKTSYDKVI, the figure is 52.6. Consider […] (CDR3 as printed); T6M derived by comparing it with the table's wild-type CDR3 AGPMKTSYDKVI, for which the enrichment was 0. As for […] (CDR3 as printed); S7G derived by comparing it with the table's wild-type CDR3 AGPMKTSYDKVI, the figure is 0; as for […] (CDR3 as printed); T6H derived by comparing it with the table's wild-type CDR3 AGPMKTSYDKVI, 0. As for […] (CDR3 as printed); M4W derived by comparing it with the table's wild-type CDR3 AGPMKTSYDKVI, the figure is 0. Take […] (CDR3 as printed); M4Y derived by comparing it with the table's wild-type CDR3 AGPMKTSYDKVI: the enrichment was determined as 0. For the variant […] (CDR3 as printed); T6S derived by comparing it with the table's wild-type CDR3 AGPMKTSYDKVI, the enrichment amounted to 0. In the case of […] (CDR3 as printed); P3A derived by comparing it with the table's wild-type CDR3 AGPMKTSYDKVI, the enrichment was found to be 0. For […] (CDR3 as printed); P3S derived by comparing it with the table's wild-type CDR3 AGPMKTSYDKVI, the enrichment worked out at 0. In the case of […] (CDR3 as printed); M4K derived by comparing it with the table's wild-type CDR3 AGPMKTSYDKVI, the enrichment is 0. As for […] (CDR3 as printed); T6V derived by comparing it with the table's wild-type CDR3 AGPMKTSYDKVI, the figure is 0; as for […] (CDR3 as printed); P3R derived by comparing it with the table's wild-type CDR3 AGPMKTSYDKVI, 0. With […] (CDR3 as printed); M4T derived by comparing it with the table's wild-type CDR3 AGPMKTSYDKVI, the enrichment turned out to be 0. As for […] (CDR3 as printed); V11K derived by comparing it with the table's wild-type CDR3 AGPMKTSYDKVI, the figure is 0; as for […] (CDR3 as printed); T6L derived by comparing it with the table's wild-type CDR3 AGPMKTSYDKVI, 0; as for […] (CDR3 as printed); V11E derived by comparing it with the table's wild-type CDR3 AGPMKTSYDKVI, 0. As for […] (CDR3 as printed); V11S derived by comparing it with the table's wild-type CDR3 AGPMKTSYDKVI, the figure is 0; as for […] (CDR3 as printed); V11A derived by comparing it with the table's wild-type CDR3 AGPMKTSYDKVI, 0. As for […] (CDR3 as printed); P3W derived by comparing it with the table's wild-type CDR3 AGPMKTSYDKVI, the figure is 0.

In the case of […] (CDR3 as printed); M4P derived by comparing it with the table's wild-type CDR3 AGPMKTSYDKVI, the enrichment came to 0. As for […] (CDR3 as printed); P3L derived by comparing it with the table's wild-type CDR3 AGPMKTSYDKVI, the figure is 0.

With […] (CDR3 as printed); Y8A derived by comparing it with the table's wild-type CDR3 AGPMKTSYDKVI, the enrichment came out at 77.9. As for […] (CDR3 as printed); V11I derived by comparing it with the table's wild-type CDR3 AGPMKTSYDKVI, the figure is 0; as for […] (CDR3 as printed); P3C derived by comparing it with the table's wild-type CDR3 AGPMKTSYDKVI, 0; as for […] (CDR3 as printed); V11D derived by comparing it with the table's wild-type CDR3 AGPMKTSYDKVI, 0.

For the variant […] (CDR3 as printed); M4Q derived by comparing it with the table's wild-type CDR3 AGPMKTSYDKVI, the enrichment amounted to 0. As for […] (CDR3 as printed); Y8W derived by comparing it with the table's wild-type CDR3 AGPMKTSYDKVI, the figure is 0. As for […] (CDR3 as printed); S7W derived by comparing it with the table's wild-type CDR3 AGPMKTSYDKVI, the figure is 0. As for […] (CDR3 as printed); S7P derived by comparing it with the table's wild-type CDR3 AGPMKTSYDKVI, the figure is 0. Take […] (CDR3 as printed); P3G derived by comparing it with the table's wild-type CDR3 AGPMKTSYDKVI: the enrichment was 0.
